Measurements taken from patent US20100086958A1, “NOVEL ENZYME” (priority 2008, published 2010).
Where two headings read alike, the source gives them in different places.

Experiments:
[1] = cited from earlier work
[2] = cited from earlier work; for Km: read-out: Km NAD^+
[3] = Steady state kinetics for formate oxidation; assay type: biochemical
Protocol: (§1) BcenFDH1 (Bsp184FDH) and BspFDH2 (Bsp383FDH) catalyzed oxidation of formate to CO2 was monitored by UV/Vis spectrophotometry in a 96-well plate format. A series of eight solutions of formate (0-200 mM) were prepared by successive dilutions of a stock solution of 0.5 M sodium formate in 0.1 M sodium phosphate buffer, pH 7.0. From this series, 170 μL was transferred into wells of the 96-well plate. 10 μL of the FDHs from a stock solution (64.1 μM for BcenFDH1 (Bsp184FDH) and 78.0 μM for BspFDH2 (Bsp383FDH)) were added into each well and equilibrated for 3 min at 30° C. The reaction was initiated by addition of 20 μL of NAD^+ or NADP^+ solution from a freshly prepared stock (10 mM) using an 8-channel pipette. The plate was then immediately placed into the plate reader. The plate was shaken for 5 s to ensure thorough mixing, and then time-based measurements were recorded every 15 s for 10 min. The rate of formate oxidation was calculated using an extinction coefficient of 3.38 mM^−1 (for 200 μL), which was determined using NADH standards. Km and Vmax values were obtained by non-linear regression to the Michaelis-Menten equation (Eq.1 below) using Origin v7 (Microcal Software Inc.).

[4] = Steady state kinetics for NADP^+ (FDH-catalysed formate oxidation); assay type: biochemical; settings: for Km / kcat NADP^+: cofactor NADP^+, 0.18M formate
Protocol: as §1
(§2) Similar procedure were used for determination of Michaelis-Menten parameters for NAD^+ and NADP^+. A series of eight solutions of cofactor (0-75 mM) were prepared by successive dilutions of stock solutions. […] of sodium formate solutions (180 mM in well) were transferred into wells of the 96-well plate. 10 μL of the FDHs from a stock solution (64.1 μM for BcenFDH1 (Bsp184FDH) and 78.0 μM for BspFDH2 (Bsp383FDH)) were added into each well and equilibrated for 3 min at 30° C. The reaction was initiated by addition of 20 μL of NAD^+ or NADP^+ solutions using an 8-channel pipette. The plate was then immediately placed into the plate reader. The plate was shaken for 5 s to ensure thorough mixing, and then time-based measurements were recorded every 15 s for 10 min. The rate of formate oxidation was calculated using an extinction coefficient of 3.38 mM^−1 (for 200 μL), which was determined using NADH standards. Km and Vmax values were obtained by non-linear regression to the Michaelis-Menten equation as before.

[5] = Steady state kinetics for NAD^+ (FDH-catalysed formate oxidation); assay type: biochemical; settings: for Km / kcat NAD^+: cofactor NAD^+, 0.18M formate
Protocol: as §1, §2

[6] = Serov et al. (2002), cited from earlier work; for Km: read-out: Km NADP^+
[7] = pH profile determination of FDH-catalysed formate oxidation; assay type: biochemical; settings: pHs as low 4 or as high as 10.5
Protocol: The pH profiles for BcenFDH1 (Bsp184FDH) and BspFDH2 (Bsp383FDH) catalyzed formate oxidation, shown in FIG. 13(a) and (b), were investigated by Uv/Vis spectrophotometry in a 96-well plate format. […] From this series, 170 μL was transferred into wells of the 96-well plate. 10 μL of the FDHs from a stock solution solution (64.1 μM for BcenFDH1 (Bsp184FDH) and 78.0 μM for BspFDH2 (Bsp383FDH)) were added into each well and equilibrated for 3 min at 30° C. The reaction was initiated by addition of 20 μL of NAD^+ solution from a freshly prepared stock (10 mM) using an 8-channel pipette. The plate was then immediately placed into the plate reader. The plate was shaken for 5 s to ensure thorough mixing, and then time-based measurements were recorded every 15 s for 10 min. The rate of formate oxidation was calculated using an extinction coefficient of 3.38 mM^−1 (for 200 μL).

[8] = Assay of enzyme activity (specific activity, U/mg); assay type: biochemical; settings: unit = μmol formate oxidized per min in the presence of co-factor; This work
Protocol: The reaction was initiated by addition of NAD^+. The total volume of the reaction mixture was 1 mL. Specific activity (U/mg enzyme) was defined as number of μmols of product formed per mg enzyme per minute.

[9] = Thermal stability study (remaining activity after incubation); assay type: physicochemical
Protocol: FIGS. 19 and 20—show the effect of temperature on the stability of the Bsp184FDH and Bsp383FDH enzymes. In FIG. […] In FIG. 20 (1) Bsp184FDH (2.1 mg/mL) and (2) Bsp383FDH (1.5 mg/mL) were incubated at 60° C. and 70° C. for 48 hours period in a similar way. Remaining activities were assayed under standard assay conditions and were expressed as the percentage of activities.
Thermal stability for purified wild-type BcenFDH1 (Bsp184FDH) and BspFDH2 (Bsp383FDH) catalyzed formate oxidation were investigated by Uv/V is spectrophotometry in a 96-well plate format. The results are illustrated in FIGS. 19 and 20. […] In addition, time based-thermal stability for purified wild-type BcenFDH1 (Bsp184FDH) and BspFDH2 (Bsp383FDH) catalyzed formate oxidation were also investigated at 60° C. and 70° C. over 48 hours in a similar way. The samples were spun down briefly to remove any precipitations before use. 10 μL of heat-treated BcenFDH1 and BspFDH2 were added into each well and equilibrated for 3 min at 30° C. after adding 170 μL of 200 mM sodium formate (dissolving in 50 mM sodium phosphate buffer, pH 7.0.) The reaction was initiated by addition of 20 μL of NADP^+ solution from a freshly prepared stock of 20 mM using an 8-channel pipette. The plate was then immediately placed into the plate reader. The plate was shaken for 5 seconds to ensure thorough mixing. Time-based measurements were recorded every 10 s for 10 min. The rate of formate oxidation was calculated using the absorption coefficient of 3.38 mM^−1 (for 200 μL).

[10] = 0.25 M formate, Serov et al. (2002)
[11] = 0.5 M formate, Serov et al. (2002)

B1: PseFDH: FDH from Pseudomonas sp. 101, Seq ID No: 3 (protein, listed as Pseudomonas sp.)
chain: MAKVLCVLYDDPVDGYPKTYARDDLPKIDHYPGGQTLPTPKAIDFTPGQLLGSVSGELGLRKYLESNGHTLVVTSDKDGPDSVFERELVDADVVISQPFWPAYLTPERIAKAKNLKLALTAGIGSDHVDLQSAIDRNVTVAEVTYCNSISVAEHVVMMILSLVRNYLPSHEWARKGGWNIADCVSHAYDLEAMHVGTVAAGRIGLAVLRRLAPFDVHLHYTDRHRLPESVEKELNLTWHATREDMYPVCDVVTLNCPLHPETEHMINDETLKLFKRGAYIVNTARGKLCDRDAVARALESGRLAGYAGDVWFPQPAPKDHPWRTMPYNGMTPHISGTTLTAQARYAAGTR
formate oxidation, times more effectively with NAD^+ than with NADP^+ ([1]; Tishkov et al. (1991)): 2400 times | activity with NAD^+ ([1]; unit = μmol formate oxidized per min, literature): 6-8 U/mg | kcat NAD^+ ([2]; data from Serov et al. (2002)): 10.0 ± 0.6 s⁻¹ | Km ([2]; data from Serov et al. (2002)): 0.06 ± 0.005 mM

B2: CmetFDH: NADH-dependent wild-type FDH from Candida methylica, Seq ID No: 6 (protein, listed as Candida methylica)
chain: MKIVLVLYDAGKHAADEEKLYGCTENKLGIANWLKDQGHELITTSDKEGETSELDKHIPDADIIITTPFHPAYITKERLDKAKNLKSVVVAGVGSDHIDLDYINQTGKKISVLEVTGSNVVSVAEHVVMTMLVLVRNFVPAHEQIINHDWEVAAIAKDAYDIEGKTIATIGAGRIGYRVLERLLPFNPKELLYYDYQALPKEAEEKVGARRVENIEELVAQADIVTVNAPLHAGTKGLINKELLSKFKKGAWLVNTARGAICVAEDVAAALESGQLRGYGGDVWFPQPAPKDHPWRDMRNKYGAGNAMTPHYSGTTLDAQTRYAEGTKNILESFFTGKFDYRPQDIILLNGEYVTKAYGKHDKK
Km ([3]; formate oxidation with NAD^+): 8.29 ± 1 mM | kcat ([3]; formate oxidation with NAD^+): 6.9875 ± 0.2928 s⁻¹ | Km [4]: 7 ± 1.4 mM | kcat NADP^+ [4]: 0.005 ± 0 s⁻¹ | formate oxidation, times more effective with NAD^+ than with NADP^+ [5]: 1.7×10^4 times | Km [5]: 0.2 mM | kcat NAD^+ [5]: 1.67 ± 0.033 s⁻¹

B3: D197A/Y198R SceFDH: D197A/Y198R mutant of S. cerevisiae FDH, data from Serov et al. (2002) (protein, UniProt Q08911 1-376, looked up, variant D197A Y198R)
Formate dehydrogenase 1: MSKGKVLLVLYEGGKHAEEQEKLLGCIENELGIRNFIEEQGYELVTTIDKDPEPTSTVDRELKDAEIVITTPFFPAYISRNRIAEAPNLKLCVTAGVGSDHVDLEAANERKITVTEVTGSNVVSVAEHVMATILVLIRNYNGGHQQAINGEWDIAGVAKNEYDLEDKIISTVGAGRIGYRVLERLVAFNPKKLLYYARQELPAEAINRLNEASKLFNGRGDIVQRVEKLEDMVAQSDVVTINCPLHKDSRGLFNKKLISHMKDGAYLVNTARGAICVAEDVAEAVKSGKLAGYGGDVWDKQPAPKDHPWRTMDNKDHVGNAMTVHISGTSLDAQKRYAQGVKNILNSYFSKKFDYRPQDIIVQNGSYATRAYGQKK
kcat NADP^+ ([6]; 0.25 M formate): 0.13 ± 0.01 s⁻¹ | Km ([6]; 0.25 M formate): 4.5 ± 0.5 mM | kcat NADP^+ ([6]; 0.5 M formate): 0.16 ± 0.02 s⁻¹ | Km ([6]; 0.5 M formate): 7.6 ± 0.9 mM | kcat NAD^+ [2, 10]: 0.095 ± 0.01 s⁻¹ | Km [2, 10]: 7.6 ± 0.8 mM | kcat NAD^+ [2, 11]: 0.12 ± 0.02 s⁻¹ | Km [2, 11]: 8.4 ± 0.9 mM

B4: Bsp184FDH: wild type FDH from Burkholderia cenocepacia PC184, Seq ID No: 2, C-terminal His-tagged (protein, listed as Burkholderia cenocepacia)
chain: MATVLCVLYPDPVDGYPPRYVRDTIPVITHYADGQTAPTPAGPPGFRPGELVGSVSGALGLRGYMEAHGHTLIVTSDKDGPDSEFERRLPEADVVISQPFWPAYLSAERIARAPKLKLALTAGIGSDHVDLDAAARARITVAEVTGSNSISVAEHVVMTTLALVRNYLPSHAVAQQGGWNIADCVSRSYDVEGMHFGTVGAGRIGLAVLRRLQPFGLQLHYTQRHRLDASIEQALALTYHADVASLASAVDIVNLQIPLYPSTEHLFDAAMIARMKRGAYLINTARAKLVDRDAVVNALTSGHLAGYGGDVWFPQPAPADHPWRTMPFNGMTPHISGTSLSAQARYAAGTLEILQCWFDGRPIRNEYLIVDGGTLAGTGAQSYRLT
modifications: C-terminal His tag
kcat ([3]; formate oxidation with NADP^+): 2.2073 ± 0.2553 s⁻¹ | Km ([3]; formate oxidation with NAD^+): 99.2 ± 7.11 mM | kcat ([3]; formate oxidation with NAD^+): 0.34 ± 0.0123 s⁻¹ | activity at extreme pH [7]: highly active | Km [4]: 1.1 ± 0.1 mM | kcat NADP^+ [4]: 3.07 ± 0.083 s⁻¹ | cofactor preference for NADP^+, times greater than those of known FDHs such as CmetFDH ([4]; relative to CmetFDH): 10^6 times | activity with NADP^+ [8]: 3.12 U/mg | activity with NAD^+ [8]: 0.48 U/mg | Km [5]: 15 ± 4 mM | kcat NAD^+ [5]: 0.567 ± 0.12 s⁻¹ | temperature at which the enzymes denature [9]: 80 °C | activity lost upon incubation ([9]; 55° C. for 2 hours): no activity was lost | stability at room temperature ([9]; room temperature for weeks): stable
